Measured values as given in doi:10.1101/2020.10.20.346916 (bioRxiv, 2020).

Columns and labels:
[1] = target: HCoV-OC43 spike ectodomain (HCoV-OC43, strain Paris, UniProt Q696P8); assay: BLI
MHV spike S2 ectodomain = MHV spike S2 ectodomain (MHV, strain A59, UniProt P11224); assay: ELISA
[2] = target: HCoV-HKU1 spike ectodomain (HCoV-HKU1, strain Caen1, UniProt E0YJ44, strain); assay: ELISA
[3] = target: GFP-tagged membrane-anchored full-length MHV spike protein (MHV, strain A59 (assumed as for the …, UniProt P11224)); assay: immunostaining of cells or tissue
[4] = target: SARS-CoV-2 spike ectodomain (SARS-CoV-2, Wuhan-Hu-1, UniProt P0DTC2); assay: BLI

B1: human monoclonal antibody 1.6C7 (antibody, V domains shown)
VH: QVQLQQSGPGLVKPSQTLSLTCAISGDSVSSDSAAWNWIRQSPSRGLEWLGRTYFRSKWNNHYAVSVKSRITINPDTSKNQFSLLLNPVTPEDTAVYYCARATLARGALDYWGQGTLVTVSS
VL: not shown
Kd [1]: 5.28 nM | binding result (MHV spike S2 ectodomain): binds | binding result [2]: no binding (tested: 10 μg/ml) | binding result [3]: binds

B2: human monoclonal antibody 28D9 (antibody, V domains shown)
VH: QVQLQQSGPGLVKPSQTLSLTCAISGDNVFSNSAAWNWIRQSPSRGLEWLGRTYYRSKWNNDYAVSVKGRITINPDTYKNQFSLQLNPVTPEDTAVYFCARVPMNRGGMDVWGQGTTVTVSS
VL: not shown
Kd [4]: 5.96 nM | Kd [1]: 7.45 nM | binding result (MHV spike S2 ectodomain): binds | binding result [2]: no binding (tested: 10 μg/ml) | binding result [3]: binds
